The values below come from patent US20200040103A1 (Genentech, published 2020).

One test concerns the target human KLK4 (human, UniProt Q9Y5K2 31-254, limits assumed). Description: array SPR imaging, antibody immobilized. The procedure: (§1) An array-based SPR imaging system (Carterra™, USA) was used to epitope bin a panel of 288 monoclonal antibodies. Purified antibodies were diluted at 10 μg/ml in 10 mM sodium acetate buffer pH 4.5. Using amine coupling, antibodies were directly immobilized onto a SPR sensorprism CMD 200M chip (XanTec Bioanalytics GmbH, Germany) using a Continuous Flow Microspotter (Carterra™, USA) to create an array of 288 antibodies. For analysis, the IBIS MX96 SPRi (Carterra™, USA) was used to evaluate analytes binding to the immobilized ligands. For kinetic analyses, human, cyno and murine KLK5 were injected for 3 minutes from 0 to 300 nM at 3-fold dilution followed by a dissociation period of 10 minutes. Human KLK1, KLK4, and KLK7 were injected at a single concentration of 500 nM to ensure the specificities of the antibodies. For epitope binning against SPINK9-Fc-SRE, human KLK5 was first injected for 4 minute at 100 nM and was followed by a second 4 minute injection of SPINK9-Fc-SRE at 10 μg/ml. The surface was regenerated with 10 mM glycine pH1.5 between cycles. The experiment was performed at 25° C. in a running buffer of HBS-T buffer (0.01M HEPES pH 7.4, 0.15M NaCl, 0.05% surfactant P20). The kinetic data was processed using Scrubber 2.0 (BioLogic™ Software) and the epitope binning data was processed using Wasatch binning software tool (Carterra™, USA).

In the next test the target is human KLK1 (human, UniProt P06870 25-262, limits assumed). Description: array SPR imaging, antibody immobilized. The procedure:
as §1

The target of another test is human KLK7 (human, UniProt P49862 30-253, limits assumed). The experiment in a line: array SPR imaging, antibody immobilized. The procedure:
as §1

Test [1] deals with T1, Recombinant human KLK5 residues I67-S293 (SEQ ID NO:328) (human, UniProt Q9Y337 67-293, lysine residues methylated in the 10C5 and 9H5 complexes that gave crystals).
T1 construct: Expressed in Sf9 cells as ubiquitin fusion; ubiquitin removed with Enterokinase; also called Human KLK5 Crystal Structure Experiments
T1 sequence: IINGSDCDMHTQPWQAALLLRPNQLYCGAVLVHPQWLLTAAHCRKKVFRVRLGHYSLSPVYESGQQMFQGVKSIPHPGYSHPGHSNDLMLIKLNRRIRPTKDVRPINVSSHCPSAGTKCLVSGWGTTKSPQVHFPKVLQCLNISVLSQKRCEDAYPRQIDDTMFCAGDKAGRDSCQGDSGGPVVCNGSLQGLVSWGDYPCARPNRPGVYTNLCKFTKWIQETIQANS
The experiment in a line: crystal structure of the Fab/KLK5 complex. The method, then: Recombinant human KLK5 residues I67-S293 (SEQ ID NO:328) was expressed in a Baculovirus expression system as a C-terminal fusion of ubiquitin with an Enterokinase cleavage site engineered between ubiquitin and KLK5. Sf9 cells were coexpressed with EndoH with 1 mg/mL of Kifunensine. Protein was purified on a HiTrap™ Heparin column. The column was washed with 25 mM TRIS pH 7.5 for 5 CV (column volumes), and then eluted with 0-750 mM NaCl over a gradient of 20 CV. Resultant protein pool was then further purified over 5200 by SEC in 25 mM Tris pH 7.5, 300 mM NaCl. The Ubiquitin was then cleaved using Enterokinase, and sample further purified by SEC again. […] Fab fragments including heavy and light chains were expressed and purified as described. See Carter et al., Biotechnology 10(2), 163-167 (1992). KLK5 was then mixed with each of the Fabs separately, 10C5, 9H5, and 3-3F5, and the complex was purified by SEC in 25 mM HEPES pH 7.2, 100 mM NaCl. […] Crystal for the 10C5 and 9H5 complexes were only obtained when the lysine residues in the protein complexes were methylated. See Walter et al., Structure, 14(11), 1617-1622 (2006).

Sequence of human KLK4 (Q9Y5K2 31-254 limits assumed): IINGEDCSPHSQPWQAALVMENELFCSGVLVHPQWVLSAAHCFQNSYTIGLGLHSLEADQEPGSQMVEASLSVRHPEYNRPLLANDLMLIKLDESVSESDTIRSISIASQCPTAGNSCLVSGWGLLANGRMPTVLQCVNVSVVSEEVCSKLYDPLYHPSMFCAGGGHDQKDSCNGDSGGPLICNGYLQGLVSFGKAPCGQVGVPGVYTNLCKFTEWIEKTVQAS
Sequence of human KLK1 (P06870 25-262 limits assumed): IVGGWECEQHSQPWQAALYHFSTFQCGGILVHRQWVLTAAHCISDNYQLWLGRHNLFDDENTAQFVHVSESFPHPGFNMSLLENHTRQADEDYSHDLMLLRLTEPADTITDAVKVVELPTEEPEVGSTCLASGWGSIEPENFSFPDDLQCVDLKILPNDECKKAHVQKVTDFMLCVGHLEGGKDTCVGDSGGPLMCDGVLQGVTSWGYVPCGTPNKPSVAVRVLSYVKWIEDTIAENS
Sequence of human KLK7 (P49862 30-253 limits assumed): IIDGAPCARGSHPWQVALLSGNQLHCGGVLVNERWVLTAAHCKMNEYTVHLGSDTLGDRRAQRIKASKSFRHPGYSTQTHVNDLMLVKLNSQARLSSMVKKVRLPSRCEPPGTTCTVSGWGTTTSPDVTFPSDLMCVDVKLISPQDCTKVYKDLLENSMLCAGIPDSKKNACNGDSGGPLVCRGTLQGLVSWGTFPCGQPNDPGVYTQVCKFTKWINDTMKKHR

B1: 14C8 (antibody, V domains shown)
VH: EVQLVESGGGLVQPGRSLKLSCTASGFTFSDYNMAWVRQAPKGGLEWVTTISYDAGRTYYRDSVKGRFTISRDNAKRTLSLQMDSLRSEDTATYYCATGIFNYGTDYFDYWGQGVMVTVSS
VL: DIQMTQSPASLSASLGETVTIQCRASEDIYSGLAWYQQKPGKSPQLLIYGATTLHDGVPSRFSGSGSGTQYSLKISSMHSEDEGIYFCHQGLSFPYTFGAGTKLELK
With B1, the binding result with human KLK4, with human KLK1 and with human KLK7 was “no binding (tested: 500 nM)” in each case.

B2: 9H5 Fab (Fab, V domains shown)
VH: EVQLVESGGGLIQPGGSLRLSCAASGFSLSSYGVSWVRQAPGKGLEYVGFIGSGGFAYYASWAKSRFTISRDNSKNTLYLQMNSLRAEDTAVYYCARDDVGGGKSLDIWGQGTLVTVSS
VL: DIQMTQSPSSLSASVGDRVTITCQASQSISSYLSWYQQKPGKAPKLLIYSASTLASGVPSRFSGSGSGTDFTLTISSLQPEDFATYYCHQDYTSSNVDNTFGGGTKVEIKR
notes: Fab used for crystallization with human KLK5; lysines of the complex were methylated; also called Fab 9H5 Humanized
In the case of B2, the buried surface area in test [1] stood at 805 Å^2.

B3: 10C5 Fab (Fab, V domains shown)
VH: EVQLVESGGGLVQPGGSLRLSCAASGFSLSSYGVTWVRQAPGKGLEWIGYITSNYGVSYYASWAKSRSTISRDTSKNTVYLQMGSLRAEDMAVYYCARENPDYGYAYDAWGQGTTVTVSS
VL: AIRMTQSPSSFSASTGDRVTITCQASESISNELSWYQQKPGKAPKLLIYYASTLASGVPSRFSGSGSGTDFTLTISSLQPEDFATYYCAQGFGSSGVENVFGGGTKVEIKR
notes: Fab used for crystallization with human KLK5; lysines of the complex were methylated; also called Fab 10C5 Humanized
As for B3, the buried surface area in test [1] was around 860 Å^2.

B4: 8E11 (antibody, V domains shown)
VH: QEQLEESGGDLVKPEGSLTLTCTASGFSFSSSYWICWVRQAPGKGLEWIACVYGLDVNIYYASWTKGRFTISKTSSTTVTLQMTSLTAADTATYFCARGGGSADFGFDLWGPGTLVTVSS
VL: DVVMTQTASPVSAAVGGTVTIKCQASENIYSLLAWYQQKPGQPPKVLIYDASDLASGVPSRFKGSGSGTQFTLTISDLECADAATYYCQATAYGSSGNAFGGGTEVVVK
In the case of B4, the binding result with human KLK4, in the test with human KLK1 and with human KLK7 was “no binding (tested: 500 nM)” each time.

B5: 8G10 (antibody, V domains shown)
VH: QSLEESGGDLVKPEGSLTLTCTASGFSFSTSYWICWVRQAPGKGLEWIACVYGLDVNIYYASWTEGRFTISKTSSTTVTLQVTSLTAADTATYFCARGGGSADFGFDLWGPGTLVTVSS
VL: DVVMTQTPASVSEPVGGTVTIKCQASENIYSLLAWYQQKPGQPPKVLIYDASDLASGVPSRFKGSGSGTQFTLTISDLECADAATYYCQATAYGSSGNAFGGGTEVVVK
On to B5, for which the binding result with human KLK4, with human KLK1 and with human KLK7 was “no binding (tested: 500 nM)” each time.

B6: 14E12 (antibody, V domains shown)
VH: EVQLVESGGGLVRPGRSLRLSCAASGFTFSDYYMAWVRQAPTKGLEWVASISYDGDTTYYRDSVKGRFTISRDNARSSLYLQMDSLRSDDTANYFCTTDGTIPAGSWFAYWGQGTLVTVSS
VL: DIQMTQSPASLSASLGETVTIECLASKNIYRNLAWYQQKPGKSPQFLISDASRLQDGVPSRFTGSDSGSQYSLKINSLQSEDVATYFCQQYHDYPYTFGAGTKLELK
With B6, the binding result with human KLK4, with human KLK1 and in the test with human KLK7 was “no binding (tested: 500 nM)” throughout.

B7: 3-3F5 Fab (Fab, V domains shown)
VH: EVQLLESGGGLVQPGGSLRLSCAVSGFSLNDYGVSWVRQAPGKGLEWVGAIGSSGVAWYANFAKGRFTISRDNSKNTLYLQMNSLRAEDTAVYYCARDRDYGYRADDATSGMDLWGRGTLVTVSS
VL: AIRMTQSPSSFSASTGDRVTITCQASESIGNALAWYQQKPGKAPKLLIYDASDLASGVPSRFSGSGSGTDFTLTISSLQPEDFATYYCQQGDSHNNVDNIFGGGTKVEIKR
notes: Fab used for crystallization with human KLK5; also called 3F5.5 Fab; Fab 3-3F5 Humanized
Consider B7, for which the buried surface area in test [1] was 956 Å^2.
